What all share (experiment): two-hybrid library CCmax;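 further: natural log of median RNA to DNA barcode read ratio; higher means stronger binding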
Experiment [1] concerns the target T1, 4H1351-AA.
T1 chain: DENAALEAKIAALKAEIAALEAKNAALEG
Conditions: mean of both orientations.

For experiment [2], the target named is T2, 4H2109-AA.
T2 chain: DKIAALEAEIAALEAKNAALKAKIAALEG

The target in experiment [3] is T3, 4H32-AA.
T3 chain: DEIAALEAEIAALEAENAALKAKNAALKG
The following applies: mean of both orientations.

Experiment [4] has as its target T4, 4H123-AA.
T4 chain: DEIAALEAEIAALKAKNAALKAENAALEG
The following applies: mean of both orientations.

In experiment [5] the target is T5, 4H1842-AA.
T5 chain: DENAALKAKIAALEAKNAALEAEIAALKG
The following applies: mean of both orientations.

Experiment [6] has as its target T6, 4H2553-AA.
T6 chain: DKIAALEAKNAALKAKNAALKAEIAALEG
The following applies: mean of both orientations.

Experiment [7] deals with T7, 4H1629-AA.
T7 chain: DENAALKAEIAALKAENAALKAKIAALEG
The following applies: mean of both orientations.

Experiment [8] deals with T8, 4H2907-AA.
T8 chain: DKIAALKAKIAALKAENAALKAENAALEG
Conditions: mean of both orientations.

In experiment [9] the target is T9, 4H993-AA.
T9 chain: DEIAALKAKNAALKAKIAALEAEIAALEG
Conditions: mean of both orientations.

The target in experiment [10] is T10, 4H234-AA.
T10 chain: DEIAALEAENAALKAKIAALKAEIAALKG
Conditions: mean of both orientations.

Experiment [11] has as its target T11, 4H566-AA.
T11 chain: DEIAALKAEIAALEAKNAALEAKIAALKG
Conditions: mean of both orientations.

Experiment [12] has as its target T12, 4H794-AA.
T12 chain: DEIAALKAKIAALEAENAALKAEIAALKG
Conditions: mean of both orientations.

In experiment [13] the target is T13, 4H780-AA.
T13 chain: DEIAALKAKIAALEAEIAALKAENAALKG
The following applies: mean of both orientations.

Experiment [14] deals with T14, 4H3627-AA.
T14 chain: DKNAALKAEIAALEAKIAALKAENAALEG
The following applies: mean of both orientations.

In experiment [15] the target is T15, 4H1867-AA.
T15 chain: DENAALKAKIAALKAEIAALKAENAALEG
The following applies: mean of both orientations.

In experiment [16] the target is T16, 4H605-AA.
T16 chain: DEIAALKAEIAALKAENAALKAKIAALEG
The following applies: mean of both orientations.

The target in experiment [17] is T17, 4H2393-AA.
T17 chain: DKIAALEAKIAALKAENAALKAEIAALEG
Conditions: mean of both orientations.

Experiment [18] has as its target T18, 4H48-AA.
T18 chain: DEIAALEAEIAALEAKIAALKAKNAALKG
The following applies: mean of both orientations.

Experiment [19] deals with T19, 4H2078-AA.
T19 chain: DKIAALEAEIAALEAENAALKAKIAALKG
The following applies: mean of both orientations.

Experiment [20] deals with T20, 4H2165-AA.
T20 chain: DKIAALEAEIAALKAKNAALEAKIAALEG
Conditions: mean of both orientations.

B1: 4H1142-AA (peptide)
chain: DENAALEAEIAALKAKNAALEAKIAALKG
For the molecule B1, the interaction score in experiment [1] was -1.31; in experiment [2] it was 0.249; in experiment [3] it was -1.11; in experiment [4] it was -1.25; in experiment [5] it was -0.709; in [6], -1.85. For the same molecule, the interaction score in experiment [7] was -1.15; in [8] it was -1.24.

B2: 4H1153-AA (peptide)
chain: DENAALEAENAALEAEIAALEAEIAALEG
With B2, the interaction score in experiment [1] is -1.51; in experiment [9], 1.59; in experiment [3], -2.43; in experiment [4], -2.05; in experiment [10], 0.621; in experiment [11] it was -1.5. Further, the interaction score is -1.49 in experiment [12]; -1.44 in experiment [13]; -0.371 in [6]; -0.179 in [14]; 0.531 in [15]; -1.75 in experiment [16]. For the same molecule, the interaction score in experiment [17] is -1.3; in experiment [18] it was -1.38; in experiment [19], -0.975; in experiment [20], -1.33; in experiment [7], -1.34; in experiment [8], -1.67.
